Results: the RNAGym collection of RNA variant scans (doi:10.1073/pnas.2313332121)

B1: TPR t1 (parent)
chain: GACCAAUCUGCCCUCAGAGCUCGAGAACAUCUUCGGAUGCAGAGGAGGCAGGCUUCGGUGGCGCGAUAGCGCCAACGUCCUCAACCUCCAAUGCAUCCCACCACAUGAUGAUGCCUGAAGAGCCUUGGUUUUUUG

Variants of: B1
Assay: polymerase ribozyme fitness, log enrichment relative to wild type (log ratio); higher = more active; in vitro selection for triplet polymerase activity
Method in brief: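 Input and output libraries were sequenced on Illumina after a single in vitro selection round, run in triplicate on PCR-built, transcribed mutant libraries of each subunit of a heterodimeric triplet polymerase ribozyme. Selection annealed libraries to a biotinylated primer, the partner subunit and triplets, incubated them frozen at −7 °C, then gel-excised extended constructs for streptavidin-bead capture and RT-PCR. Genotypes with ≥10 input reads and ≥1 read per output were kept. Fitness is the logarithm, taken in base 2, of genotype enrichment divided by wild-type enrichment, using inverse-variance-weighted replicate averages.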

Variant	polymerase ribozyme fitness (log ratio)
A26G C49A U55C C62U G63A A83C U109A G113A	-6.66
A27C C49G	-4.07
C28A G45U C72A C115A	-6.12
A26U G51A C64U A91U G120A C124G	-6.85
A27U A46G	-2.59
A24G G52A A66U C73U A91G	-4.6
A24U G39U G60U C115A U129C	-6.65
A27C U112C G120C U126C U131A	-3.22
G25A A26G A46U G63A A118C G120A	-5.5
A26G G36A A108U C123G	-5.15
A24G U109C	-5.04
A24G U87G	-2.03
C28G A111U	-2.62
A27U C88U C102A	-5.16
A27C G61U	-3.27
A27C G60A	-3.37
C28G U32C	-2.94
A24G C73A	-1.74
A27G G69C C102U	-4.65
C28A C72G C123U U125C	-4.42
G25C G69U	-4.39
G25C A46G C70U C85G	-6.39
A24U C56A G60A C123U U125A	-5.92
C28A G60A	-2.44

Variant	polymerase ribozyme fitness (log ratio)
G25U C72U G110U C114U	-6.32
A26U G122A G127U U133G	-4.8
A26U C40U C64U	-3.97
A26C C53U C56G	-5.02
C28A G120C	-2.79
A24C G61A	-6.26
A24G G69C C85G	-4.96
G25A G60U G117A	-7.98
G25U G36U	-6.39
A26G U112A	-0.933
A27G A46U G57C U81A A83C C104A G117C G122A	-7.94
A27U C97U U130C	-3.37
A26G A29G C72G U78A A118U	-3.07
A26U U54C C72U U133A	-2.18
A24G G44U C64U U133G	-3.26
G25C C70A	-7.32
A26U C53U C56G A100C	-5.42
A24G C53U C62U C89U G113A	-5.19
C28G A50U	-4.17
C28G U32C A91U C114U A119G	-6.71
A27U G61C	-5.97
A26U G42C C62U C70A C88U G117U	-6.33
A26U A66G U112G	-5.69
A27C C62A A119G A121U	-2.98

Variant	polymerase ribozyme fitness (log ratio)
A24G A84U	-1.7
A26U C115U	-4.53
A26G U78C U106A G113U C115A	-5.3
A26G G71U C88G G120C	-3.91
A24U G39A C72A U112C	-7.11
A26U G35U C53U U112C C114U G117A	-7.18
C28A A50C C82U C115A	-4.58
A26U C82G C115U	-5.9
A26U A95G	-2.46
A26U U129G	-3.51
A24G C97U G120U	-2.28
A24G G117C G128A	-6.86
A27U A84U	-3.79
A27U A84G	-4.18
C28A C85U	-4.56
A26U U81A	-4.77
A27C C53G	-2.64
A26G A37U C49U G120U	-2.45
A27G C49G G63U C89G G117C	-7.01
A27U C70A C115G U130G	-6.2
A27G C56G U81A C94A G122A C123A U131A	-5.75
A27U C62U	-3.58
A26U G48U	-3.85
A26U C53U G69C C115G G117C U133G	-6.29

Variant	polymerase ribozyme fitness (log ratio)
A24G A41C A46U C53A U125A	-4.79
G25C C53A	-6.51
A26U C62U	-3.59
A26U C53U C56U	-3.75
A26C G61A	-3.85
A26G C89G	-3.55
A26G C89U	-2.94
A27C G48A C86G U92A A103G A105C U109G	-7.14
A27U U32A C72U C114A	-5.96
C28A C72A	-3.59
A27C G39A G61A C94A U112G	-4.85
A27U C28G G110C	-4
C28A G110A	-0.364
A27U A41U C49U C72U	-5.06
A26U A83C	-3.24
C28G C72A	-3.15
G25A C72A C86G	-6.66
C28G G63A C73U	-3.78
A26U C89A	-6.44
A27U G71U C94A	-4.88
A27U A37C A91G C94U U106C	-5.4
A26U G71C U131A	-4.6
C28G G44A A46G A90C	-4.5
A24G C56G G113A G120A G128A	-7.42

Variant	polymerase ribozyme fitness (log ratio)
A24G U54G G57C C72U C73G C124U	-3.92
A27U C82G U106A G120C	-1.62
C28G C40U C86A	-3.65
A27U C123G	-0.165
A27U C123U	-1.65
A24U G69U C114G	-7.51
A24U C28G A84C G120U	-7.73
A26U C56U C72U	-3.04
A27U C73U	-2.99
A27U C124U	-0.949
A26G G61C C86U	-4.37
A27G C34U	-4.85
A24G U38G C56A C80A	-5.92
A24G G36U C56U C101U	-3.37
G25A G47A C72G C76U U87G C114G	-5.41
A27G C115A	-3.25
A27U G47U C56U	-4.13
A26G U30C	-4.29
C28A A83U	-2.16
A27G G69A	-2.88
A27G C76U C89U G93A	-3.34
A26G C28G C104U	-2.85
A24G C40U G71A C114A	-5.13
A24G U81A	-2.64

Variant	polymerase ribozyme fitness (log ratio)
G25U G61U	-5.8
A27G C62G A83G C86U	-5.4
A26G C53U C101A	-3.58
A24G C49G A121C	-0.875
A27G A37G G57C U96G C115A	-5.8
A27U C72G	-3.21
A26G G51U C101U	-5.8
A27G A50G U81A	-1.56
A26U G71A C82U	-4.08
C28A G61C	-5.18
A26G C89G C102U U112A G120A	-5.43
A26G A27U G36A U112G U129G	-5.51
C28G C70A	-4.55
A26G A37U C53G	-3.12
A26C C34U G36U C72A	-6.66
A26U C49U	-3.62
A26G A50G C56G A74G C82G	-4.41
A24G G45C	-3.46
G25A C62A C86U C102U G120C	-7.36
A24G G120U	-1.65
C28G C53A C88U C124A	-1.3
A27U C97A	-7.67
A24G G57C A91G	-2.98
C28A G35C G61A A84C A103G C114A G117C	-7.02

Variant	polymerase ribozyme fitness (log ratio)
A24U U30G G63U C102G	-5.42
C28G C40A C94U G110C	-0.668
A24G A43G	-3.13
A27C C89U	-4.35
A26G G45C A95G C98G	-7.76
A27U U96G G110U	-7.43
A27G A50U	-2.6
A26G C28U A121G	-0.559
A24C G63C C79G A90C C124A	-7.24
A26C U106A G122A	-2.97
A24G G48A C64G A108U A121C	-6.51
G25U G110U	-5.41
A27U C70U G122A	-3.96
C28G G45U G52A G107C U109A C124A	-5.94
A26U C56G	-3.48
A24G C72U	-1.6
A24G G60A C80U C88A	-4.67
C28A G110C A119U	-1.42
A27U G47C G48A U78C A95G	-5.5
G25A C56A	-5.23
A27U C94G	-5.02
C28A G69C C124A	-4.58
A27G G60C	-2.15
